In the supplement of paper PMC9170038:

Tested on: K4 kissing-loop RNA reporter
Assay: apparent KD of K4 kissing-loop reporter; higher = weaker reporter binding
Details: Eterna round: R107
Method: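 RNA-MaP round R107: designed RNA switches with theophylline, tryptophan, arginine or FMN aptamers are transcribed on-chip within common flanks. They are titrated with a labelled K4 kissing-loop RNA reporter in RNA-MaP buffer (100 mM Tris pH 7.5, 80 mM KCl, 4 mM MgCl2), without ligand or with the indicated ligand. Median apparent KD per design.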

[1] = input ligand: theophylline 20 uM
[2] = input ligand: tryptophan 2.4 mM
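Also: bound reporter read as fluorescence of individual clusters on recovered sequencing chips by microscopy, with normalized cluster intensities fitted with a binding model.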

| Sequence | apparent KD of K4 kissing-loop reporter (input ligand: FMN 200 uM) [nM] | apparent KD of K4 kissing-loop reporter (input ligand: arginine 13.2 mM) [nM] | apparent KD of K4 kissing-loop reporter (input ligand: none) [nM] | apparent KD of K4 kissing-loop reporter [1] [nM] | apparent KD of K4 kissing-loop reporter [2] [nM] |
| --- | --- | --- | --- | --- | --- |
| UGACUGGACUGAAGGAGCGCGAAACUCCUAGUGAUGUUAGGAUAACGAGACAAAGUCUCGACGCAGGUAGGUCGCAGUCUAGUCU | 130 | 92.6 | 116 | 119 | 120 |
| GAAUAAUAACAUGAGUGAUGUUCAUGUAAACGAGGACCGGUACGGCCGCCACUCGAACCUCAUGUAAGCCGUACCAAUAACAAUA [KL-XTryp-A4 #analogue] | 115 | 120 | 112 | 116 | 120 |
| GCAAUCCCGGCGGCCGCCACUUUCAUACCAGUGAUGUUGAGUAGGAAAUGGAAUAUGCGCUGAAUAAGGACCGGGCCUAAGGAGA [theeternabot_exclusion_KL_Trp_B_47] | 270 | 216 | 251 | 255 | 210 |
| AGUGCACUGUCAGGAUAUGUACAGUGAUGUUGUGUAUGUCAGCAAGUCAAAGACUUGCUCUUCUGUGCAGAAGGGACUGUGUACA [Omei KL FMN B Exc A v5] | 755 | 464 | 628 | 506 | 554 |
| UGUAAGCGCGUAGAUACCAGCAGACGAGUGAUGUUCAAGAGAUUAAGGAAAAGAAAGUAAUGCCCUUGGCAGCUAAUCAUAAGCG [whbob_Ex_Theo_B_sa93] | 384 | 312 | 446 | 331 | 363 |
| GUCCCGAGUGAUGUUCGGGUCGUUUGGGAAGGAGCGCCCGGAAGGGCAGGUAGGUCGCCCGGACCCUGCAGGUAACUGUUGGGCC [#2 Same State - Arginine A Attempt #19 (HarryS)] | 206 | 154 | 210 | 215 | 194 |
| UGAUAGGACAGAAGGAGCGGAAGUGAUGUUUCCAAAUGGAUAAGGUGUCAAAAGACACCCUUCCAGGUAGGUCGCUGUCCUAUCU [ArgBX 14 #Palindromic #SwitchBubble #StaticStem] | 111 | 112 | 130 | 102 | 101 |
| AUUAAUUUCAGAGGAUAUCGUUAUUUUUUAUAUUUUAUUCAUUUAUGCAGUGAUGUUGCUAUUAUUCGAGAAGGCUGAUUUAUAA [JR_ExcFMNB_Sub004] | 86.4 | 105 | 44.9 | 100 | 50.9 |
| UUAGUCUAGAGAAGGAGCGAGUGAUGUUCGCAUGCUAUGAUGAAUUCAUCAUAGUUUAAUCCUCAGGUAGGUCGCUCUAGACAUU [AK7 Exc Arginine B] | 427 | 339 | 418 | 355 | 350 |
| UAUAUAGUGACGGCCGCCACUAUAUUAAUGUUUUUGUUAGAGUGAUGUUUUGUUUAAUAUUUUUAUAGGACCGGGUUAUAUGUUA [zsqqxmullin] | 569 | 338 | 641 | 557 | 580 |
| AAAGCAUUGAGAAGGAGCGUGACGUGGAGUGAUGUUCCAUUGUAGUAAUAAUUACUACUAUCACAGGUAGGUCGCUCAUUGCUAA [JR_Nu_SSArginiB_Sub024] | 183 | 159 | 181 | 161 | 180 |
| AAACCCAGUGAUGUUGGGAAUCAGUUGAGGGAGGAUAUUGGUAAUACAAGAAGGCCCGGCUGCGGGUGAUGUUCGCAUUAGGGCC [Exclusion FMN A GF17] | 160 | 157 | 152 | 154 | 140 |
| AGUGAUGUUGUGUUAUGUUAGGGAAGUGAUCGAGGACCGGUACGGCCGCCACUCGAGUGAUGAGUGAGUGAUGUUUGUUUAGGGA [yytmullin] | 1030 | 670 | 1610 | 1070 | 590 |
| GCCGUACGCAUGGAUACCAGUUGCGAAGUGAUGUUUCGGGCGAUCAAAGGAUCGCCCUACAACCCUUGGCAGCCAUGCGUACGGC | 158 | 67.3 | 122 | 204 | 120 |
| UAUAUAGUGACGGCCGCCACUAUAUUAAUGUUUUUGUUAGAGUGAUGUUUUGAUUAAUAUUUUUAUAGGACCGGGUUAUAUGUUA [xzzxmullin] | 657 | 403 | 634 | 628 | 558 |
| CGCAGUGAUGUUGCGAAUAUAAUAACGGAAGGAGCGCGUGAAAACGCAGGUAGGUCGCCGAUUGGUAUGAUGGAAACAUCGUACC [Arginine A K4 9] | 154 | 134 | 125 | 115 | 122 |
| UGAUACCAGGCGGCCGCCACUCCUACAGGUCAAAGACCUGUAGAACUGGUUUUUUAGUGAUGUUGGAGGACCGGGCCUGGUAUCU [FiskerMod 30 - Jieux - Exclusion - Tryptophan B] | 698 | 217 | 394 | 296 | 321 |
